Source: patent publication US20140087995A1 (published 2014)
Numbered stars: 1 amine (or outer) side, 2 acyl side, 3 side chain; on linkers, the order of the positions; unused ones are H or OH. Bridge positions count the residues as written; N and C are the ends. Side chains are listed from the residue outwards. Ends that are not written are not given here. * marks the point of attachment. C20 diacid = O=C(O)CCCCCCCCCCCCCCCCCCC(=O)*; γGlu = O=C(O)[C@H](CCC(=O)[*:2])N[*:1]

T1: human calcitonin receptor (human, UniProt P30988 25-474)
T1 sequence (looked up): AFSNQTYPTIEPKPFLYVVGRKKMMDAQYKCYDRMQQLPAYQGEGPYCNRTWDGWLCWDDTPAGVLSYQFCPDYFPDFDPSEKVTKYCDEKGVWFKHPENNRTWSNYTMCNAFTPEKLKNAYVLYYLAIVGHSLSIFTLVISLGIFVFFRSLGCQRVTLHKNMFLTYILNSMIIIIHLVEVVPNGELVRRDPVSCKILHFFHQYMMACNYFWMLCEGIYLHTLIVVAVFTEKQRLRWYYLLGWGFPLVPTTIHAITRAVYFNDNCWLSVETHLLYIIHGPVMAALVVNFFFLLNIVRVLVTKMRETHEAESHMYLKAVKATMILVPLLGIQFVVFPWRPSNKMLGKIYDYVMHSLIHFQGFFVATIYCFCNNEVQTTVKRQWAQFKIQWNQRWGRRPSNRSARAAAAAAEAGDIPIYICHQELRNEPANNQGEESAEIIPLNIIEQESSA

T2: human amylin receptor (amylin 3(a) receptor: human calcitonin receptor with RAMP-3) (human, UniProt P30988 25-474; O60896 24-148)
T2 sequence (looked up) 1: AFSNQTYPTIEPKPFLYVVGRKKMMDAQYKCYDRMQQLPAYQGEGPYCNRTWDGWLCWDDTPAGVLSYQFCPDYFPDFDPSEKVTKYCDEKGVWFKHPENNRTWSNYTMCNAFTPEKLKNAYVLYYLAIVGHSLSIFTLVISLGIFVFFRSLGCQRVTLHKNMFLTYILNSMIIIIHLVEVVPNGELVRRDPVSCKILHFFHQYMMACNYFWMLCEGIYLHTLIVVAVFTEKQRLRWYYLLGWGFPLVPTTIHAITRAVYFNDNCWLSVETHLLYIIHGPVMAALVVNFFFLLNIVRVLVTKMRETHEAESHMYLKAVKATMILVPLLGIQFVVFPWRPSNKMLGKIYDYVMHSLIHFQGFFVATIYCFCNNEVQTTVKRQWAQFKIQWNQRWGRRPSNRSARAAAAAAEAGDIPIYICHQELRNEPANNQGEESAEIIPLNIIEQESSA
T2 sequence (looked up) 2: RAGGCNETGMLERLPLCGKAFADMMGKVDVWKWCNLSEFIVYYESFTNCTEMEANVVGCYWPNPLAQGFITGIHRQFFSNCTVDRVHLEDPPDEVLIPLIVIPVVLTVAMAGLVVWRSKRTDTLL


What was measured:
[1] = target: T1, human calcitonin receptor; assay: cell-based or functional assay
[2] = target: T2, human amylin receptor (amylin 3(a) …); assay: cell-based or functional assay

Binder | Ratio hCT/hAmylin funct. [1] | hCTR funct. EC50 [1] [pM] | hAmylin-R funct. EC50 [2] [pM]
{C20 diacid-γGlu-γGlu}-KCNTATCATQRLAEFLRHSSPNFGAIPSSTNVGSNTY-NH2 (disulfide 2-7; SMILES CC[C@H](C)[C@H](NC(=O)[C@H](C)NC(=O)CNC(=O)[C@H](Cc1ccccc1)NC(=O)[C@H](CC(N)=O)NC(=O)[C@@H]1CCCN1C(=O)[C@H](CO)NC(=O)[C@H](CO)NC(=O)[C@H](Cc1c[nH]cn1)NC(=O)[C@H](CCCNC(=N)N)NC(=O)[C@H](CC(C)C)NC(=O)[C@H](Cc1ccccc1)NC(=O)[C@H](CCC(=O)O)NC(=O)[C@H](C)NC(=O)[C@H](CC(C)C)NC(=O)[C@H](CCCNC(=N)N)NC(=O)[C@H](CCC(N)=O)NC(=O)[C@@H](NC(=O)[C@H](C)NC(=O)[C@@H]1CSSC[C@H](NC(=O)[C@H](CCCCN)NC(=O)CC[C@H](NC(=O)CC[C@H](NC(=O)CCCCCCCCCCCCCCCCCCC(=O)O)C(=O)O)C(=O)O)C(=O)N[C@@H](CC(N)=O)C(=O)N[C@@H]([C@@H](C)O)C(=O)N[C@@H](C)C(=O)N[C@@H]([C@@H](C)O)C(=O)N1)[C@@H](C)O)C(=O)N1CCC[C@H]1C(=O)N[C@@H](CO)C(=O)N[C@@H](CO)C(=O)N[C@H](C(=O)N[C@@H](CC(N)=O)C(=O)N[C@H](C(=O)NCC(=O)N[C@@H](CO)C(=O)N[C@@H](CC(N)=O)C(=O)N[C@H](C(=O)N[C@@H](Cc1ccc(O)cc1)C(N)=O)[C@@H](C)O)C(C)C)[C@@H](C)O, also called compound 15) | 8.9 | 3430 | 386
K([γGlu-C20 diacid])CNTATCATQRLANFLRHSSPNFGAIPSSTNVGSKTY-NH2 (disulfide 2-7; N-terminus assumed; SMILES CC[C@H](C)[C@H](NC(=O)[C@H](C)NC(=O)CNC(=O)[C@H](Cc1ccccc1)NC(=O)[C@H](CC(N)=O)NC(=O)[C@@H]1CCCN1C(=O)[C@H](CO)NC(=O)[C@H](CO)NC(=O)[C@H](Cc1c[nH]cn1)NC(=O)[C@H](CCCNC(=N)N)NC(=O)[C@H](CC(C)C)NC(=O)[C@H](Cc1ccccc1)NC(=O)[C@H](CC(N)=O)NC(=O)[C@H](C)NC(=O)[C@H](CC(C)C)NC(=O)[C@H](CCCNC(=N)N)NC(=O)[C@H](CCC(N)=O)NC(=O)[C@@H](NC(=O)[C@H](C)NC(=O)[C@@H]1CSSC[C@H](NC(=O)[C@@H](N)CCCCNC(=O)CC[C@H](NC(=O)CCCCCCCCCCCCCCCCCCC(=O)O)C(=O)O)C(=O)N[C@@H](CC(N)=O)C(=O)N[C@@H]([C@@H](C)O)C(=O)N[C@@H](C)C(=O)N[C@@H]([C@@H](C)O)C(=O)N1)[C@@H](C)O)C(=O)N1CCC[C@H]1C(=O)N[C@@H](CO)C(=O)N[C@@H](CO)C(=O)N[C@H](C(=O)N[C@@H](CC(N)=O)C(=O)N[C@H](C(=O)NCC(=O)N[C@@H](CO)C(=O)N[C@@H](CCCCN)C(=O)N[C@H](C(=O)N[C@@H](Cc1ccc(O)cc1)C(N)=O)[C@@H](C)O)C(C)C)[C@@H](C)O, also called compound 35) [N^ε1-[(4S)-4-carboxy-4-(19-carboxynonadecanoylamino)butanoyl]-[Arg17,Pro21,Pro27,Lys35]-h-amylin] | 15 | 5460 | 364
K([γGlu-γGlu-C20 diacid])CNTATCATQRLADFLRHSSPNFGAIPSSTNVGSDTY-NH2 (disulfide 2-7; N-terminus assumed; SMILES CC[C@H](C)[C@H](NC(=O)[C@H](C)NC(=O)CNC(=O)[C@H](Cc1ccccc1)NC(=O)[C@H](CC(N)=O)NC(=O)[C@@H]1CCCN1C(=O)[C@H](CO)NC(=O)[C@H](CO)NC(=O)[C@H](Cc1c[nH]cn1)NC(=O)[C@H](CCCNC(=N)N)NC(=O)[C@H](CC(C)C)NC(=O)[C@H](Cc1ccccc1)NC(=O)[C@H](CC(=O)O)NC(=O)[C@H](C)NC(=O)[C@H](CC(C)C)NC(=O)[C@H](CCCNC(=N)N)NC(=O)[C@H](CCC(N)=O)NC(=O)[C@@H](NC(=O)[C@H](C)NC(=O)[C@@H]1CSSC[C@H](NC(=O)[C@@H](N)CCCCNC(=O)CC[C@H](NC(=O)CC[C@H](NC(=O)CCCCCCCCCCCCCCCCCCC(=O)O)C(=O)O)C(=O)O)C(=O)N[C@@H](CC(N)=O)C(=O)N[C@@H]([C@@H](C)O)C(=O)N[C@@H](C)C(=O)N[C@@H]([C@@H](C)O)C(=O)N1)[C@@H](C)O)C(=O)N1CCC[C@H]1C(=O)N[C@@H](CO)C(=O)N[C@@H](CO)C(=O)N[C@H](C(=O)N[C@@H](CC(N)=O)C(=O)N[C@H](C(=O)NCC(=O)N[C@@H](CO)C(=O)N[C@@H](CC(=O)O)C(=O)N[C@H](C(=O)N[C@@H](Cc1ccc(O)cc1)C(N)=O)[C@@H](C)O)C(C)C)[C@@H](C)O, also called compound 2) | 16.4 | 3000 | 182
K([γGlu-C20 diacid])CNTATCATQRLAEFLRHSSPNFGAIPSSTNVGSNTP-NH2 (disulfide 2-7; N-terminus assumed; SMILES CC[C@H](C)[C@H](NC(=O)[C@H](C)NC(=O)CNC(=O)[C@H](Cc1ccccc1)NC(=O)[C@H](CC(N)=O)NC(=O)[C@@H]1CCCN1C(=O)[C@H](CO)NC(=O)[C@H](CO)NC(=O)[C@H](Cc1c[nH]cn1)NC(=O)[C@H](CCCNC(=N)N)NC(=O)[C@H](CC(C)C)NC(=O)[C@H](Cc1ccccc1)NC(=O)[C@H](CCC(=O)O)NC(=O)[C@H](C)NC(=O)[C@H](CC(C)C)NC(=O)[C@H](CCCNC(=N)N)NC(=O)[C@H](CCC(N)=O)NC(=O)[C@@H](NC(=O)[C@H](C)NC(=O)[C@@H]1CSSC[C@H](NC(=O)[C@@H](N)CCCCNC(=O)CC[C@H](NC(=O)CCCCCCCCCCCCCCCCCCC(=O)O)C(=O)O)C(=O)N[C@@H](CC(N)=O)C(=O)N[C@@H]([C@@H](C)O)C(=O)N[C@@H](C)C(=O)N[C@@H]([C@@H](C)O)C(=O)N1)[C@@H](C)O)C(=O)N1CCC[C@H]1C(=O)N[C@@H](CO)C(=O)N[C@@H](CO)C(=O)N[C@H](C(=O)N[C@@H](CC(N)=O)C(=O)N[C@H](C(=O)NCC(=O)N[C@@H](CO)C(=O)N[C@@H](CC(N)=O)C(=O)N[C@H](C(=O)N1CCC[C@H]1C(N)=O)[C@@H](C)O)C(C)C)[C@@H](C)O, also called compound 12) | 1.8 | 185 | 101
{C20 diacid-γGlu}-KCNTATCATQRLAEFLRHSSPNFGAIPSSTNVGKNTY-NH2 (disulfide 2-7; SMILES CC[C@H](C)[C@H](NC(=O)[C@H](C)NC(=O)CNC(=O)[C@H](Cc1ccccc1)NC(=O)[C@H](CC(N)=O)NC(=O)[C@@H]1CCCN1C(=O)[C@H](CO)NC(=O)[C@H](CO)NC(=O)[C@H](Cc1c[nH]cn1)NC(=O)[C@H](CCCNC(=N)N)NC(=O)[C@H](CC(C)C)NC(=O)[C@H](Cc1ccccc1)NC(=O)[C@H](CCC(=O)O)NC(=O)[C@H](C)NC(=O)[C@H](CC(C)C)NC(=O)[C@H](CCCNC(=N)N)NC(=O)[C@H](CCC(N)=O)NC(=O)[C@@H](NC(=O)[C@H](C)NC(=O)[C@@H]1CSSC[C@H](NC(=O)[C@H](CCCCN)NC(=O)CC[C@H](NC(=O)CCCCCCCCCCCCCCCCCCC(=O)O)C(=O)O)C(=O)N[C@@H](CC(N)=O)C(=O)N[C@@H]([C@@H](C)O)C(=O)N[C@@H](C)C(=O)N[C@@H]([C@@H](C)O)C(=O)N1)[C@@H](C)O)C(=O)N1CCC[C@H]1C(=O)N[C@@H](CO)C(=O)N[C@@H](CO)C(=O)N[C@H](C(=O)N[C@@H](CC(N)=O)C(=O)N[C@H](C(=O)NCC(=O)N[C@@H](CCCCN)C(=O)N[C@@H](CC(N)=O)C(=O)N[C@H](C(=O)N[C@@H](Cc1ccc(O)cc1)C(N)=O)[C@@H](C)O)C(C)C)[C@@H](C)O, also called compound 36) | 6.8 | 1280 | 189
K([γGlu-γGlu-C20 diacid])CNTATCATQRLAEFLRHSSPNFGAIPSSTNVGSNTP-NH2 (disulfide 2-7; N-terminus assumed; SMILES CC[C@H](C)[C@H](NC(=O)[C@H](C)NC(=O)CNC(=O)[C@H](Cc1ccccc1)NC(=O)[C@H](CC(N)=O)NC(=O)[C@@H]1CCCN1C(=O)[C@H](CO)NC(=O)[C@H](CO)NC(=O)[C@H](Cc1c[nH]cn1)NC(=O)[C@H](CCCNC(=N)N)NC(=O)[C@H](CC(C)C)NC(=O)[C@H](Cc1ccccc1)NC(=O)[C@H](CCC(=O)O)NC(=O)[C@H](C)NC(=O)[C@H](CC(C)C)NC(=O)[C@H](CCCNC(=N)N)NC(=O)[C@H](CCC(N)=O)NC(=O)[C@@H](NC(=O)[C@H](C)NC(=O)[C@@H]1CSSC[C@H](NC(=O)[C@@H](N)CCCCNC(=O)CC[C@H](NC(=O)CC[C@H](NC(=O)CCCCCCCCCCCCCCCCCCC(=O)O)C(=O)O)C(=O)O)C(=O)N[C@@H](CC(N)=O)C(=O)N[C@@H]([C@@H](C)O)C(=O)N[C@@H](C)C(=O)N[C@@H]([C@@H](C)O)C(=O)N1)[C@@H](C)O)C(=O)N1CCC[C@H]1C(=O)N[C@@H](CO)C(=O)N[C@@H](CO)C(=O)N[C@H](C(=O)N[C@@H](CC(N)=O)C(=O)N[C@H](C(=O)NCC(=O)N[C@@H](CO)C(=O)N[C@@H](CC(N)=O)C(=O)N[C@H](C(=O)N1CCC[C@H]1C(N)=O)[C@@H](C)O)C(C)C)[C@@H](C)O, also called compound 13) | 2.2 | 470 | 213
KCNTATCATQRLAEFLRHSSPNFGAIPSSTNVGSNTY (C20 diacid-gGlu-2xOEG on the alpha amino group of the N-terminal residue; disulfide bridge Cys2-Cys7; C-terminal amide, also called compound 19) | 17.4 | 5320 | 307
